Article PMC6274722
deuterohemin = iron-porphyrin joined to the peptide N-terminus

Target: amyloid β 1-42 peptide (Aβ1-42) (UniProt P05067)

Q: How did the particle size (DLS, five days) and morphology (TEM, three days) of Aβ1-42 incubated with DhHP-6 at 10 μM:10 μM, 37 °C turn out when deuterohemin-AHTVEK-NH2 (also: His2 imidazole is the fifth ligand of the deuterohemin iron) [Deuterohemin-AlaHisThrValGluLys (DhHP-6)] was run?
A: 396 nm
